# Experimental data as given in patent publication US20210388087A1 (Chugai, published 2021).
# Biological target: human CD137 on HDLM-2 cells (human, UniProt Q07011 24-255)
# Assay: cell-based or functional assay
# Sequence of human CD137 on HDLM-2 cells (Q07011 24-255): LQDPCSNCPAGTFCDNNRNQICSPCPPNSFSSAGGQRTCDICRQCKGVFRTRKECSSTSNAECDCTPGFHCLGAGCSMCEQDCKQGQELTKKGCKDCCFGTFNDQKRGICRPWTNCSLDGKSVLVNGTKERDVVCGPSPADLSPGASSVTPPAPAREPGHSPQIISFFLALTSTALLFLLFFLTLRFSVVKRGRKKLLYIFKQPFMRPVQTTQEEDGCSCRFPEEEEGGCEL
Binder,"Agonistic activity compared to B, antibody 6 ug/mL [%]","Agonistic activity compared to B, antibody 30 ug/mL [%]","Agonistic activity compared to Ctrl, antibody 6 ug/mL [%]","Agonistic activity compared to Ctrl, antibody 30 ug/mL [%]","hIL-6 (pg/mL), antibody 6 ug/mL [pg/mL]","hIL-6 (pg/mL), antibody 30 ug/mL [pg/mL]"
"GPC3 ERY22-dBBDu_186/L106 (bispecific antibody, human IgG1, kappa, L234A L235A, N297A) heavy 1: DIVMTQSPLSLPVTPGEPASISCRSSQSLVHSNRNTYLHWYQQKPGQAPRLLIYKVSNRFSGVPDRFSGSGSGTDFTLKISRVEAEDVGVYYCSQNTHVPPTFGQGTKLEIKSSASTKGPSVFPLAPSSKSTSGGTAALGCLVKDYFPEPVTVSWNSGALTSGVHTFPAVLQSSGLYSLSSVVTVPSSSLGTQTYICNVNHKPSNTKVDKKVEPKSCDKTHTCPPCPAPEAAGGPSVFLFPPKPKDTLMISRTPEVTCVVVDVSHEDPEVKFNWYVDGVEVHNAKTKPREEQYASTYRVVSVLTVLHQDWLNGKEYKCKVSNKALPAPIEKTISKAKGQPREPQVCTLPPSRDELTKNQVSLWCLVKGFYPSDIAVEWESNGQPENNYKTTPPVLDSDGSFFLYSKLTVDKSRWQQGNVFSCSVMHEALHNHYTQKSLSLSPHHHHHHHH light 1: QVQLVQSGAEVKKPGASVKVSCKASGYTFTDYEMHWIRQPPGQGLEWIGAIDPKTGDTAYSQKFKGRVTLTADKSTSTAYMELSSLTSEDTAVYYCTRFYSYTYWGQGTLVTVSSASVAAPSVFIFPPSDEQLKSGTASVVCLLNNFYPREAKVQWKVDNALQSGNSQESVTEQDSKDSTYSLSSTLTLSKADYEKHKVYACEVTHQGLSSPVTKSFNRGEC heavy 2: QVQLVESGGGLVQPGRSLRLSCAASGFTFSNAWMHWVRQAPGKGLEWVAQIKDRSNQYATYYAPSVKGRFTISRDDSKNSIYLQMNSLKTEDTAVYYCHYVHYAQASTVLPAFGVDAWGQGTTVTVSSASTKGPSVFPLAPSSKSTSGGTAALGCLVKDYFPEPVTVSWNSGALTSGVHTFPAVLQSSGLYSLSSVVTVPSSSLGTQTYICNVNHKPSNTKVDKKVEPKSCDKTHTCPPCPAPEAAGGPSVFLFPPKPKDTLMISRTPEVTCVVVDVSHEDPEVKFNWYVDGVEVHNAKTKPREEQYASTYRVVSVLTVLHQDWLNGKEYKCKVSNKALPAPIEKTISKAKGQPREPQVYTLPPSRCELTKNQVSLSCAVKGFYPSDIAVEWESNGQPENNYKTTPPVLDSDGSFFLVSKLTVDKSRWQQGNVFSCSVMHEALHNHYTQKSLSLSPDYKDDDDK light 2: DIVMTQSPLSLPVTPGEPASISCSTSEELLHINRFIFLHWYQQKPGQAPRLLIYKVANRFMGVPDRFSGSGSGTDFTLKISRVEAEDVGVYYCAQGSQVPFTFGQGTKLEIKRTVAAPSVFIFPPSDEQLKSGTASVVCLLNNFYPREAKVQWKVDNALQSGNSQESVTEQDSKDSTYSLSSTLTLSKADYEKHKVYACEVTHQGLSSPVTKSFNRGEC",13.2,19.4,45.8,73.6,1480,1570
"GPC3 ERY22-dBBDu_186/L098 (bispecific antibody, human IgG1, kappa, L234A L235A, N297A) heavy 1: DIVMTQSPLSLPVTPGEPASISCRSSQSLVHSNRNTYLHWYQQKPGQAPRLLIYKVSNRFSGVPDRFSGSGSGTDFTLKISRVEAEDVGVYYCSQNTHVPPTFGQGTKLEIKSSASTKGPSVFPLAPSSKSTSGGTAALGCLVKDYFPEPVTVSWNSGALTSGVHTFPAVLQSSGLYSLSSVVTVPSSSLGTQTYICNVNHKPSNTKVDKKVEPKSCDKTHTCPPCPAPEAAGGPSVFLFPPKPKDTLMISRTPEVTCVVVDVSHEDPEVKFNWYVDGVEVHNAKTKPREEQYASTYRVVSVLTVLHQDWLNGKEYKCKVSNKALPAPIEKTISKAKGQPREPQVCTLPPSRDELTKNQVSLWCLVKGFYPSDIAVEWESNGQPENNYKTTPPVLDSDGSFFLYSKLTVDKSRWQQGNVFSCSVMHEALHNHYTQKSLSLSPHHHHHHHH light 1: QVQLVQSGAEVKKPGASVKVSCKASGYTFTDYEMHWIRQPPGQGLEWIGAIDPKTGDTAYSQKFKGRVTLTADKSTSTAYMELSSLTSEDTAVYYCTRFYSYTYWGQGTLVTVSSASVAAPSVFIFPPSDEQLKSGTASVVCLLNNFYPREAKVQWKVDNALQSGNSQESVTEQDSKDSTYSLSSTLTLSKADYEKHKVYACEVTHQGLSSPVTKSFNRGEC heavy 2: QVQLVESGGGLVQPGRSLRLSCAASGFTFSNAWMHWVRQAPGKGLEWVAQIKDRSNQYATYYAPSVKGRFTISRDDSKNSIYLQMNSLKTEDTAVYYCHYVHYAQASTVLPAFGVDAWGQGTTVTVSSASTKGPSVFPLAPSSKSTSGGTAALGCLVKDYFPEPVTVSWNSGALTSGVHTFPAVLQSSGLYSLSSVVTVPSSSLGTQTYICNVNHKPSNTKVDKKVEPKSCDKTHTCPPCPAPEAAGGPSVFLFPPKPKDTLMISRTPEVTCVVVDVSHEDPEVKFNWYVDGVEVHNAKTKPREEQYASTYRVVSVLTVLHQDWLNGKEYKCKVSNKALPAPIEKTISKAKGQPREPQVYTLPPSRCELTKNQVSLSCAVKGFYPSDIAVEWESNGQPENNYKTTPPVLDSDGSFFLVSKLTVDKSRWQQGNVFSCSVMHEALHNHYTQKSLSLSPDYKDDDDK light 2: DIVMTQSPLSLPVTPGEPASISCAASEELVHINRYIFLHWYQQKPGQAPRLLIYKVSNRFIGVPDRFSGSGSGTDFTLKISRVEAEDVGVYYCAQGSQVPFTFGQGTKLEIKRTVAAPSVFIFPPSDEQLKSGTASVVCLLNNFYPREAKVQWKVDNALQSGNSQESVTEQDSKDSTYSLSSTLTLSKADYEKHKVYACEVTHQGLSSPVTKSFNRGEC",13.9,24.6,48.3,93.5,1500,1750

# Other lines, results leading:
"Agonistic activity compared to B, antibody 6 ug/mL [%]","Agonistic activity compared to B, antibody 30 ug/mL [%]","Agonistic activity compared to Ctrl, antibody 6 ug/mL [%]","Agonistic activity compared to Ctrl, antibody 30 ug/mL [%]","hIL-6 (pg/mL), antibody 6 ug/mL [pg/mL]","hIL-6 (pg/mL), antibody 30 ug/mL [pg/mL]",Binder
-2.21,1.1,-7.68,4.19,935,944,"GPC3 ERY22-dBBDu_167/L091 (bispecific antibody, human IgG1, kappa, L234A L235A, N297A) heavy 1: DIVMTQSPLSLPVTPGEPASISCRSSQSLVHSNRNTYLHWYQQKPGQAPRLLIYKVSNRFSGVPDRFSGSGSGTDFTLKISRVEAEDVGVYYCSQNTHVPPTFGQGTKLEIKSSASTKGPSVFPLAPSSKSTSGGTAALGCLVKDYFPEPVTVSWNSGALTSGVHTFPAVLQSSGLYSLSSVVTVPSSSLGTQTYICNVNHKPSNTKVDKKVEPKSCDKTHTCPPCPAPEAAGGPSVFLFPPKPKDTLMISRTPEVTCVVVDVSHEDPEVKFNWYVDGVEVHNAKTKPREEQYASTYRVVSVLTVLHQDWLNGKEYKCKVSNKALPAPIEKTISKAKGQPREPQVCTLPPSRDELTKNQVSLWCLVKGFYPSDIAVEWESNGQPENNYKTTPPVLDSDGSFFLYSKLTVDKSRWQQGNVFSCSVMHEALHNHYTQKSLSLSPHHHHHHHH light 1: QVQLVQSGAEVKKPGASVKVSCKASGYTFTDYEMHWIRQPPGQGLEWIGAIDPKTGDTAYSQKFKGRVTLTADKSTSTAYMELSSLTSEDTAVYYCTRFYSYTYWGQGTLVTVSSASVAAPSVFIFPPSDEQLKSGTASVVCLLNNFYPREAKVQWKVDNALQSGNSQESVTEQDSKDSTYSLSSTLTLSKADYEKHKVYACEVTHQGLSSPVTKSFNRGEC heavy 2: QVQLVESGGGLVQPGRSLRLSCAASGFTFSNAWMHWVRQAPGKGLEWVAQIKDKGNLYAAYYAPSVKGRFTISRDDSKNSIYLQMNSLKTEDTAVYYCHYVHYASAGGGLPGFGVDAWGQGTTVTVSSASTKGPSVFPLAPSSKSTSGGTAALGCLVKDYFPEPVTVSWNSGALTSGVHTFPAVLQSSGLYSLSSVVTVPSSSLGTQTYICNVNHKPSNTKVDKKVEPKSCDKTHTCPPCPAPEAAGGPSVFLFPPKPKDTLMISRTPEVTCVVVDVSHEDPEVKFNWYVDGVEVHNAKTKPREEQYASTYRVVSVLTVLHQDWLNGKEYKCKVSNKALPAPIEKTISKAKGQPREPQVYTLPPSRCELTKNQVSLSCAVKGFYPSDIAVEWESNGQPENNYKTTPPVLDSDGSFFLVSKLTVDKSRWQQGNVFSCSVMHEALHNHYTQKSLSLSPDYKDDDDK light 2: DIVMTQSPLSLPVTPGEPASISCSASESLLHNNRHTYLHWYQQKPGQAPRLLIYRVSNRFNGVPDRFSGSGSGTDFTLKISRVEAEDVGVYYCGQGTQVPFTFGQGTKLEIKRTVAAPSVFIFPPSDEQLKSGTASVVCLLNNFYPREAKVQWKVDNALQSGNSQESVTEQDSKDSTYSLSSTLTLSKADYEKHKVYACEVTHQGLSSPVTKSFNRGEC"
19,24.2,66.1,91.7,1680,1740,"GPC3 ERY22-dBBDu_186/L096 (bispecific antibody, human IgG1, kappa, L234A L235A, N297A) heavy 1: DIVMTQSPLSLPVTPGEPASISCRSSQSLVHSNRNTYLHWYQQKPGQAPRLLIYKVSNRFSGVPDRFSGSGSGTDFTLKISRVEAEDVGVYYCSQNTHVPPTFGQGTKLEIKSSASTKGPSVFPLAPSSKSTSGGTAALGCLVKDYFPEPVTVSWNSGALTSGVHTFPAVLQSSGLYSLSSVVTVPSSSLGTQTYICNVNHKPSNTKVDKKVEPKSCDKTHTCPPCPAPEAAGGPSVFLFPPKPKDTLMISRTPEVTCVVVDVSHEDPEVKFNWYVDGVEVHNAKTKPREEQYASTYRVVSVLTVLHQDWLNGKEYKCKVSNKALPAPIEKTISKAKGQPREPQVCTLPPSRDELTKNQVSLWCLVKGFYPSDIAVEWESNGQPENNYKTTPPVLDSDGSFFLYSKLTVDKSRWQQGNVFSCSVMHEALHNHYTQKSLSLSPHHHHHHHH light 1: QVQLVQSGAEVKKPGASVKVSCKASGYTFTDYEMHWIRQPPGQGLEWIGAIDPKTGDTAYSQKFKGRVTLTADKSTSTAYMELSSLTSEDTAVYYCTRFYSYTYWGQGTLVTVSSASVAAPSVFIFPPSDEQLKSGTASVVCLLNNFYPREAKVQWKVDNALQSGNSQESVTEQDSKDSTYSLSSTLTLSKADYEKHKVYACEVTHQGLSSPVTKSFNRGEC heavy 2: QVQLVESGGGLVQPGRSLRLSCAASGFTFSNAWMHWVRQAPGKGLEWVAQIKDRSNQYATYYAPSVKGRFTISRDDSKNSIYLQMNSLKTEDTAVYYCHYVHYAQASTVLPAFGVDAWGQGTTVTVSSASTKGPSVFPLAPSSKSTSGGTAALGCLVKDYFPEPVTVSWNSGALTSGVHTFPAVLQSSGLYSLSSVVTVPSSSLGTQTYICNVNHKPSNTKVDKKVEPKSCDKTHTCPPCPAPEAAGGPSVFLFPPKPKDTLMISRTPEVTCVVVDVSHEDPEVKFNWYVDGVEVHNAKTKPREEQYASTYRVVSVLTVLHQDWLNGKEYKCKVSNKALPAPIEKTISKAKGQPREPQVYTLPPSRCELTKNQVSLSCAVKGFYPSDIAVEWESNGQPENNYKTTPPVLDSDGSFFLVSKLTVDKSRWQQGNVFSCSVMHEALHNHYTQKSLSLSPDYKDDDDK light 2: DIVMTQSPLSLPVTPGEPASISCRTSQELVHINRYIFLHWYQQKPGQAPRLLIYKVYNRFQGVPDRFSGSGSGTDFTLKISRVEAEDVGVYYCAQGTSVPYTFGQGTKLEIKRTVAAPSVFIFPPSDEQLKSGTASVVCLLNNFYPREAKVQWKVDNALQSGNSQESVTEQDSKDSTYSLSSTLTLSKADYEKHKVYACEVTHQGLSSPVTKSFNRGEC"
